Consider 4 molecules from patent US20130210709A1 (ANCHOR THERAPEUTICS, published 2013).

Ends that are not written are not given here. * marks the point of attachment. Palmitoyl = CCCCCCCCCCCCCCCC(=O)*

B1: CXCR4 i2 loop compound 78 (peptide)
peptide: Palmitoyl-VHATNSQRPRKLLA-NH2
SMILES: CCCCCCCCCCCCCCCC(=O)N[C@H](C(=O)N[C@@H](Cc1c[nH]cn1)C(=O)N[C@@H](C)C(=O)N[C@H](C(=O)N[C@@H](CC(N)=O)C(=O)N[C@@H](CO)C(=O)N[C@@H](CCC(N)=O)C(=O)N[C@@H](CCCNC(=N)N)C(=O)N1CCC[C@H]1C(=O)N[C@@H](CCCNC(=N)N)C(=O)N[C@@H](CCCCN)C(=O)N[C@@H](CC(C)C)C(=O)N[C@@H](CC(C)C)C(=O)N[C@@H](C)C(N)=O)[C@@H](C)O)C(C)C
B2: CXCR4 i2 loop compound 79 (peptide)
peptide: Palmitoyl-HATNSQRPRKL-NH2
SMILES: CCCCCCCCCCCCCCCC(=O)N[C@@H](Cc1c[nH]cn1)C(=O)N[C@@H](C)C(=O)N[C@H](C(=O)N[C@@H](CC(N)=O)C(=O)N[C@@H](CO)C(=O)N[C@@H](CCC(N)=O)C(=O)N[C@@H](CCCNC(=N)N)C(=O)N1CCC[C@H]1C(=O)N[C@@H](CCCNC(=N)N)C(=O)N[C@@H](CCCCN)C(=O)N[C@@H](CC(C)C)C(N)=O)[C@@H](C)O
B3: CXCR4 i2 loop compound 76 (peptide)
peptide: DRYLAIVHATNSQRPRKLL-NH2
modifications: not fully specified (N-terminus); also: second lipid on tether backbone (C31H62NC(O)- tether)
B4: CXCR4 i2 loop compound 80 (peptide)
peptide: Palmitoyl-HATNSQRPRKLLA-NH2
SMILES: CCCCCCCCCCCCCCCC(=O)N[C@@H](Cc1c[nH]cn1)C(=O)N[C@@H](C)C(=O)N[C@H](C(=O)N[C@@H](CC(N)=O)C(=O)N[C@@H](CO)C(=O)N[C@@H](CCC(N)=O)C(=O)N[C@@H](CCCNC(=N)N)C(=O)N1CCC[C@H]1C(=O)N[C@@H](CCCNC(=N)N)C(=O)N[C@@H](CCCCN)C(=O)N[C@@H](CC(C)C)C(=O)N[C@@H](CC(C)C)C(=O)N[C@@H](C)C(N)=O)[C@@H](C)O

CXCR4 receptor, sequence (P61073 whole entry): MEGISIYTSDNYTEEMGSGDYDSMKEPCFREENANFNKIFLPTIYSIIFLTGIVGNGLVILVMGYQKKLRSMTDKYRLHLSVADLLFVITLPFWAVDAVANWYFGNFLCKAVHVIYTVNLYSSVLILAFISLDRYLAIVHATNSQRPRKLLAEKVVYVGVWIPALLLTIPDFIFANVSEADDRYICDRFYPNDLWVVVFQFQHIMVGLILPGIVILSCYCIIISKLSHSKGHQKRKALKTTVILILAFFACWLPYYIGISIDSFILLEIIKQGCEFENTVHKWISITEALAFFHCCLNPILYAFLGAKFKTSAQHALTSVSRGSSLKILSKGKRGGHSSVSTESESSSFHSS

This assay has as its target CXCR4 receptor (human, UniProt P61073 1-352). The experiment in a line: cell-based or functional assay.
With B1, the “AUC (% of vehicle), chemotaxis, SUPB-15, 1.0 uM” value (shortened to “AUC (% of vehicle), chemotaxis”) was 71.8 % of vehicle; the “Max (% of vehicle), chemotaxis, SUPB-15, 1.0 uM” value (from here on “Max (% of vehicle), chemotaxis”) was 72.3 % of vehicle; the “Peak Ratio, chemotaxis, SUPB-15, 1.0 uM” value was 0.2.

For B2, the “AUC (% of vehicle), chemotaxis” value is 109 % of vehicle; the “Max (% of vehicle), chemotaxis” value is 110 % of vehicle; the “Peak Ratio, chemotaxis, SUPB-15, 1.0 uM” value was 0.2.

For B3, the “Peak Ratio, chemotaxis, SUPB-15, 1.0 uM” value is 1.

As for B4, the “AUC (% of vehicle), chemotaxis” value was 102 % of vehicle; the “Max (% of vehicle), chemotaxis” value was 69 % of vehicle; the “Peak Ratio, chemotaxis, SUPB-15, 1.0 uM” value amounted to 0.2.
